Tests used:
[1] = target: T1, DNMT3A_FL WT (human, UniProt Q9Y6K1 1-912); assay: fluorescence anisotropy; 1 uM protein in complex with 10 nM FAM-H3K4me0 peptide (1-21); 50 uM sinefungin; no anisotropy change; 50 mM KH2PO4/K2HPO4 pH 7.8, 1 mM EDTA, 1 mM DTT, 0.2 mg/ml BSA, 20 mM NaCl, 50 uM sinefungin (printed 'μm'), room temperature, 5 min
[2] = target: T1, DNMT3A_FL WT; assay: fluorescence anisotropy; 1 uM protein in complex with 10 nM FAM-H3K4me0 peptide (1-21); 50 uM sinefungin; 50 mM KH2PO4/K2HPO4 pH 7.8, 1 mM EDTA, 1 mM DTT, 0.2 mg/ml BSA, 20 mM NaCl, 50 uM sinefungin (printed 'μm'), room temperature, 5 min
[3] = target: DNMT3A_CD WT (human, UniProt Q9Y6K1 634-912); assay: fluorescence anisotropy; 1 uM protein pre-bound to 10 nM FAM-GCbox30; 50 uM sinefungin; anisotropy rises on RNA addition; 50 mM KH2PO4/K2HPO4 pH 7.8, 1 mM EDTA, 1 mM DTT, 0.2 mg/ml BSA, 20 mM NaCl, 50 uM sinefungin (printed 'μm'), room temperature, 5 min; settings: protein: recombinant; tags: His (pET28a, nickel column); chain copies: 4; 25 nt
DNMT3A_CD WT, sequence (Q9Y6K1 634-912): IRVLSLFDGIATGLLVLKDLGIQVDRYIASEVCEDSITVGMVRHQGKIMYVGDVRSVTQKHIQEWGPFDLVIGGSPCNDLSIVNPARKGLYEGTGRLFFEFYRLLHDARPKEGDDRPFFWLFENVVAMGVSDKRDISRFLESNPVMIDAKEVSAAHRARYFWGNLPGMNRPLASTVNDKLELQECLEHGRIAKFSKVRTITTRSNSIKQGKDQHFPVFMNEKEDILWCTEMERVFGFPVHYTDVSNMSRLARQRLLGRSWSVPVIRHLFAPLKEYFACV

[4] = target: DNMT3A_CD R771A;DNMT3L (human;human, UniProt Q9Y6K1;Q9UJW3 634-912;1-386, R771A|); assay: fluorescence anisotropy; heterotetramer pre-bound to 10 nM FAM-GCbox30; 50 uM sinefungin; 50 mM KH2PO4/K2HPO4 pH 7.8, 1 mM EDTA, 1 mM DTT, 0.2 mg/ml BSA, 20 mM NaCl, 50 uM sinefungin (printed 'μm'), room temperature, 5 min; settings: protein: recombinant;recombinant; tags: His (pET28a, nickel column);; chain copies: 2;2; 25 nt
DNMT3A_CD R771A;DNMT3L, sequence (Q9Y6K1 634-912 R771A, chain 1 of 2): as the sequence (Q9Y6K1 634-912) above, with R138A counted along it
DNMT3A_CD R771A;DNMT3L, sequence (Q9UJW3 whole entry, chain 2 of 2): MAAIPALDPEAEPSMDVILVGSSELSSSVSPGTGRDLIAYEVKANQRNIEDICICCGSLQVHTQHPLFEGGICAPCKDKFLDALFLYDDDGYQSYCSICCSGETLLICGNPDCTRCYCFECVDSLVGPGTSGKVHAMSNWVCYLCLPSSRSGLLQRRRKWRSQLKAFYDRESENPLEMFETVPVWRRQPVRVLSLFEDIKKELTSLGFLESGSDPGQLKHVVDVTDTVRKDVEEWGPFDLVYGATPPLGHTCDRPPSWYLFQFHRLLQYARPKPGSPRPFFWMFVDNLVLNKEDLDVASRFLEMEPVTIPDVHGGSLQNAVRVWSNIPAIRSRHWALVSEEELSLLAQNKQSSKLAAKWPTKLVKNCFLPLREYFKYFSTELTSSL

[5] = target: DNMT3A_CD R736A (human, UniProt Q9Y6K1 634-912, R736A); assay: fluorescence anisotropy; 1 uM protein pre-bound to 10 nM FAM-GCbox30; 50 uM sinefungin; 50 mM KH2PO4/K2HPO4 pH 7.8, 1 mM EDTA, 1 mM DTT, 0.2 mg/ml BSA, 20 mM NaCl, 50 uM sinefungin (printed 'μm'), room temperature, 5 min; settings: protein: recombinant; tags: His (pET28a, nickel column); chain copies: 4; 25 nt
DNMT3A_CD R736A, sequence (Q9Y6K1 634-912 R736A): as the sequence (Q9Y6K1 634-912) above, with R103A counted along it

[6] = target: DNMT3A_CD R729A (human, UniProt Q9Y6K1 634-912, R729A); assay: as above; settings: protein: recombinant; tags: His (pET28a, nickel column); chain copies: 2; 25 nt
DNMT3A_CD R729A, sequence (Q9Y6K1 634-912 R729A): as the sequence (Q9Y6K1 634-912) above, with R96A counted along it

T1 sequence (Q9Y6K1 whole entry): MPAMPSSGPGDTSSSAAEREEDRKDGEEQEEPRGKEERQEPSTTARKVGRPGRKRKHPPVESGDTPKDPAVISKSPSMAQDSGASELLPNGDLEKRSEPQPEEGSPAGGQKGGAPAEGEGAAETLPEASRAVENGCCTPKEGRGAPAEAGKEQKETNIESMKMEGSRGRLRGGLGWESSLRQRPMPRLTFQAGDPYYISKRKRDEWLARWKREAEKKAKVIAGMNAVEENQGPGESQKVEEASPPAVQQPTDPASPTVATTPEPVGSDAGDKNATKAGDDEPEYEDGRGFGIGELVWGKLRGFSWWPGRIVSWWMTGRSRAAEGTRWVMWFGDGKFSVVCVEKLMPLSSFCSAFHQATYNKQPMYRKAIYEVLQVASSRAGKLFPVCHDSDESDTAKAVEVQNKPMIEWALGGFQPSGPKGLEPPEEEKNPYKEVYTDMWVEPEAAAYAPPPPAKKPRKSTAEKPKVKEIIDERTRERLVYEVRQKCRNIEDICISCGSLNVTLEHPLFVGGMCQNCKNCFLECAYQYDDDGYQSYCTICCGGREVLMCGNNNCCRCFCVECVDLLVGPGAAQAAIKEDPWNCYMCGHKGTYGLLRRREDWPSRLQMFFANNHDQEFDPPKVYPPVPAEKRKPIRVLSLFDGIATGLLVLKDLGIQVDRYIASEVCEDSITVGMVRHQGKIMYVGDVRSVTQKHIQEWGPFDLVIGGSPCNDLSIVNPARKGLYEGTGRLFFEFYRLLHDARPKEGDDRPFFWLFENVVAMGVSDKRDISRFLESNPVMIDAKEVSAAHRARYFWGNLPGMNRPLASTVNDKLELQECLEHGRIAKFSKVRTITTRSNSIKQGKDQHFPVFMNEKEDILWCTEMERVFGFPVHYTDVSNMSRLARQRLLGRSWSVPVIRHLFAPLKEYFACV

Row | Binder | binding result [1] | binding result [2] | binding result [3] | binding result [4] | binding result [5] | binding result [6]
1 | CGACCGCCUACUGAAAGAGGGC (ssRNA) [non-specific RNA] | no binding | – | – | – | – | –
2 | GGGGACACGCCCUCUGUUCCCUUAU (ssRNA) [Fos-1 ecRNA] | – | binds | binds | binds | binds | binds
